Tests used:
[1] = molecular target: HLA-A*02:02; assay: IEDB peptide-MHC binding, purified MHC/competitive/radioactivity; ≥ and ≤ were set here for values at or beyond the usual limits of such assays
[2] = molecular target: HLA-A*02:03; assay: as above
[3] = molecular target: HLA-A*02:01; assay: IEDB peptide-MHC binding, cellular MHC/competitive/fluorescence; ≥ and ≤ were set here for values at or beyond the usual limits of such assays; conditions: source organism: Vaccinia virus WR
[4] = molecular target: HLA-A*02:06; assay: as above
[5] = molecular target: HLA-A*68:02; assay: as above
[6] = molecular target: HLA-A*02:01; assay: IEDB peptide-MHC binding, purified MHC/competitive/radioactivity; ≥ and ≤ were set here for values at or beyond the usual limits of such assays
[7] = source organism: Vaccinia virus WR
[8] = source organism: Hepacivirus hominis
[9] = source organism: Influenza A virus
[10] = source organism: Mammarenavirus whitewaterense
[11] = source organism: Mammarenavirus brazilense
[12] = source organism: Mammarenavirus choriomeningitidis

Sequence	IC50 [1, 7] [nM]	IC50 [2, 7] [nM]	IC50 [4, 7] [µM]	IC50 [5, 7] [µM]	IC50 [6, 7] [nM]	also measured
IIAVFDSKLI	758	595	8.51	54.7	–	IC50 [3]: 5.93 µM
PASKKESVI	1350	1760	10.3	≥ 70	–	IC50 [3]: 18.8 µM
NLYISDYKML	1250	1830	35.9	30.9	–	IC50 [3]: 7.88 µM
YVLLLFLLLA	–	–	–	–	–	IC50 [6, 8]: 866 nM; IC50 [1, 8]: 1050 nM; IC50 [2, 8]: 727 nM; IC50 [4, 8]: 5.9 µM; IC50 [5, 8]: 12 µM
RILSEKRKDT	711	4160	6.87	10	–	IC50 [3]: 48.7 µM
GLCNYGGILI	152	3210	5.03	35.2	–	IC50 [3]: 24.2 µM
DMDFDLNIFM	1150	5000	5.32	7.3	1750	–
PLSINVSGV	1120	45	17.9	22.5	–	IC50 [3]: 6.54 µM
GLTTHCTKL	100	30	31.6	≥ 70	613	–
AIRAGYSIV	1200	0.21	8.06	15.4	–	IC50 [3]: 5.01 µM
KLKVDSDSGL	75	56	10	28.2	2360	–
SMKGENVFI	5.5	19	13.7	9.34	611	–
QLSNNKYVL	79	4940	10.7	12.5	1810	–
SLKRFTHTTA	884	726	7.31	6.08	4540	–
NLRCHSAHV	384	11	8.03	8.2	3060	–
LLENKSLTIL	185	541	7.43	21.3	1150	–
ALTDVEKRI	74	1490	14.3	23.9	1150	–
GMMQNDYGGM	103	589	12	26.4	705	–
NLYNIRNL	–	–	–	–	–	IC50 [6, 9]: 1340 nM; IC50 [1, 9]: 1330 nM; IC50 [2, 9]: 187 nM; IC50 [4, 9]: 50.8 µM; IC50 [5, 9]: 15.3 µM
ALKNSQAELT	2120	980	27.2	47.4	–	IC50 [3]: 51 µM
KLFKRERDAI	92	120	14.2	≥ 70	1480	–
KIMSGEKPSV	–	–	–	–	–	IC50 [6, 8]: 1120 nM; IC50 [1, 8]: 411 nM; IC50 [2, 8]: 1390 nM; IC50 [4, 8]: 9.47 µM; IC50 [5, 8]: ≥ 70 µM
INISGYNLSL	–	–	–	–	–	IC50 [6, 10]: 1830 nM; IC50 [1, 10]: 179 nM; IC50 [2, 10]: 1360 nM; IC50 [4, 10]: 11.4 µM; IC50 [5, 10]: 17.4 µM
SLALKNSQA	662	459	19	29.6	2490	–
VLQQNNSFI	100	249	8.69	16.3	234	–
LLFLVLIMLI	–	–	–	–	–	IC50 ([6]; source organism: SARS-CoV1): 592 nM; IC50 ([1]; source organism: SARS-CoV1): 447 nM; IC50 ([2]; source organism: SARS-CoV1): 3150 nM; IC50 ([4]; source organism: SARS-CoV1): 8.3 µM; IC50 ([5]; source organism: SARS-CoV1): 5.1 µM
ILANERYRSA	104	18	7.81	26.5	802	–

Sequence	IC50 [1, 7] [nM]	IC50 [2, 7] [nM]	IC50 [4, 7] [µM]	IC50 [5, 7] [µM]	IC50 [6, 7] [nM]	also measured
LLEMKYALI	354	135	14.9	35.8	2540	–
VLTILYYGA	1.3	18	6.24	18.6	212	–
VMPEKRNVVV	3540	299	27.6	6.74	3920	–
HIGHHYIWI	2560	899	25.3	19.9	2990	–
LINLVQYRIL	2120	2250	15.9	29.9	2220	–
RAMAWTVVNSI	–	–	–	–	–	IC50 [6, 9]: 624 nM; IC50 [1, 9]: 74 nM; IC50 [2, 9]: 66 nM; IC50 [4, 9]: 8.06 µM; IC50 [5, 9]: 7.51 µM
YLSKEDRII	305	435	10.5	≥ 70	1500	–
KLDDTGKKEL	101	139	5.53	35.2	450	–
KLFKRERDA	2390	985	14.9	35.8	859	–
IINSVSIIL	705	2900	25.9	29.9	2090	–
DVDMDFDLNI	2040	1520	5.83	8.84	4560	–
RLRYNLCKYL	261	0.3	15.7	19.2	3250	–
KCFGNTALA	–	–	–	–	–	IC50 [6, 11]: 3330 nM; IC50 [1, 11]: 31 nM; IC50 [2, 11]: 1090 nM; IC50 [4, 11]: ≥ 70 µM; IC50 [5, 11]: 25.9 µM
ALKNSQAEL	71	17	33	≥ 70	1740	–
YIRRNMINKL	820	70	8.67	13.7	3800	–
NLVQYRILPM	3990	1330	24.5	≥ 70	1440	–
KCMSAALKNL	–	–	–	–	–	IC50 [6, 12]: 1560 nM; IC50 [1, 12]: 58 nM; IC50 [2, 12]: 193 nM; IC50 [4, 12]: 14 µM; IC50 [5, 12]: 43.5 µM
HLENDKIEDL	526	414	10.6	27.1	1800	–
DTGKKELALT	1040	262	6.8	10	1680	–
RMGAVTTEV	–	–	–	–	–	IC50 [6, 9]: 222 nM; IC50 [1, 9]: 90 nM; IC50 [2, 9]: 73 nM; IC50 [4, 9]: 5.52 µM; IC50 [5, 9]: 27.1 µM
QILDNAAKYV	3930	3870	11.4	35.8	3480	–
MAFILGIIIT	4680	2830	10.3	5.16	663	–
GLSASDVDM	497	3540	13.8	≥ 70	1720	–
LMELPVKTDI	1510	986	12.9	≥ 70	1330	–
VLQQNNSFII	665	1030	9.63	16.6	709	–
RLYNSLKRFT	1060	444	7.28	14.6	873	–

— the Immune Epitope Database (IEDB)
